Target: the molecule itself
Experiment: negative-stain electron microscopy with single-particle statistical analysis; hDmc1 10 uM without DNA, 25 mM Tris-acetate pH 7.0, 2 mM ATP, 100 mM NaCl, 1 mM DTT, 2 mM CaCl2, 37 C for 30 min then on ice; eigen images and class averages of ring particles

B1: Human Dmc1 (hDmc1) (natural protein)
chain: MKEDQVVAEEPGFQDEEESLFQDIDLLQKHGINVADIKKLKSVGICTIKGIQMTTRRALCNVKGLSEAKVDKIKEAANKLIEPGFLTAFEYSEKRKMVFHITTGSQEFDKLLGGGIESMAITEAFGEFRTGKTQLSHTLCVTAQLPGAGGYPGGKIIFIDTENTFRPDRLRDIADRFNVDHDAVLDNVLYARAYTSEHQMELLDYVAAKFHEEAGIFKLLIIDSIMALFRVDFSGRGELAERQQKLAQMLSRLQKISEEYNVAVFVTNQMTADPGATMTFQADPKKPIGGHILAHASTTRISLRKGRGELRIAKIYDSPEMPENEATFAITAGGIGDAKE
notes: human Dmc1, a protein of 340 amino acid residues: N-terminal domain 1-81 and core ATPase domain 82-340; Probably the whole 340-residue protein, since both domains (1-81 and 82-340) were docked into the maps; Octameric ring without DNA; helical filament of open length on DNA; also called human meiotic recombinase Dmc1; source: E. coli BLR(DE3), purified (ammonium sulfate precipitation, HisTrap HP, …)
stoichiometry N: 8
